The values below come from patent publication US20130079246A1 (ADDEX PHARMA SA, priority 2010, published 2013).

For experiment [1], the target named is T1, chimeric TNFR1-PDGFR receptor (full length human TNFR1 fused to cytoplasmic domain of mouse PDGFR) (Homo sapiens, UniProt P19438).
T1 construct: 1, 2; full length; cytoplasmic domain (cp); expressed in transfected cells; host or cells: HEK293T cells stably expressing apoaequorin
In words: Ca2+-dependent aequorin luminescence in HEK293T Aequorin cells expressing the chimeric receptor (HTS setting). It is filed as cell-based. An excerpt: HEK293T stably expressing Apoaequorin were generated using standard cloning techniques. The HEK293T cells expressing Apoaequorin (“Aequorin cells”) were then further transfected as described in Examples 1-3 so as to express the chimeric receptors 1-3 as listed in Table 3.
In particular, the HEK293T Apoaequorin cells were transfected with pcDNA3.1 hygro TNFR1-fl-PDGFR-cd vector as prepared in Example 1 using Optifect™ Transfection Reagent (Invitrogen), according to the manufacturer's protocol.
HEK293T cells expressing Apoaequorin and the chimeric receptor (Example 4) were plated in 384-well plates at a concentration of 12500 cells per well in a final volume of 50 μl. […] A FDSS7000 reader from Hamamatsu (Japan) was used to examine intracellular calcium levels. […] The instrument features include detection with a camera of fluorescence or luminescence and automatically converts fluorescence or luminescence signals into numeric data. This digital data is then used to determine the concentration of calcium inside the analyzed cells. The information is automatically analyzed in terms of a positive, negative or null effect of each test compound being examined. This system allowed differences between untreated and treated cells to be measured, for example by measuring the calcium flux in cells. […]

The target in experiment [2] is chimeric receptor: full length human TNFR1 fused to the cytoplasmic tyrosine kinase domain of mouse PDGFR (human TNFR1; mouse PDGFR). In words: cell-based or functional assay.
chimeric receptor: full length human TNFR1 fused to the cytoplasmic tyrosine kinase domain of mouse PDGFR (human TNFR1; mouse PDGFR), sequence (chain, as listed by the source mutant limits assumed): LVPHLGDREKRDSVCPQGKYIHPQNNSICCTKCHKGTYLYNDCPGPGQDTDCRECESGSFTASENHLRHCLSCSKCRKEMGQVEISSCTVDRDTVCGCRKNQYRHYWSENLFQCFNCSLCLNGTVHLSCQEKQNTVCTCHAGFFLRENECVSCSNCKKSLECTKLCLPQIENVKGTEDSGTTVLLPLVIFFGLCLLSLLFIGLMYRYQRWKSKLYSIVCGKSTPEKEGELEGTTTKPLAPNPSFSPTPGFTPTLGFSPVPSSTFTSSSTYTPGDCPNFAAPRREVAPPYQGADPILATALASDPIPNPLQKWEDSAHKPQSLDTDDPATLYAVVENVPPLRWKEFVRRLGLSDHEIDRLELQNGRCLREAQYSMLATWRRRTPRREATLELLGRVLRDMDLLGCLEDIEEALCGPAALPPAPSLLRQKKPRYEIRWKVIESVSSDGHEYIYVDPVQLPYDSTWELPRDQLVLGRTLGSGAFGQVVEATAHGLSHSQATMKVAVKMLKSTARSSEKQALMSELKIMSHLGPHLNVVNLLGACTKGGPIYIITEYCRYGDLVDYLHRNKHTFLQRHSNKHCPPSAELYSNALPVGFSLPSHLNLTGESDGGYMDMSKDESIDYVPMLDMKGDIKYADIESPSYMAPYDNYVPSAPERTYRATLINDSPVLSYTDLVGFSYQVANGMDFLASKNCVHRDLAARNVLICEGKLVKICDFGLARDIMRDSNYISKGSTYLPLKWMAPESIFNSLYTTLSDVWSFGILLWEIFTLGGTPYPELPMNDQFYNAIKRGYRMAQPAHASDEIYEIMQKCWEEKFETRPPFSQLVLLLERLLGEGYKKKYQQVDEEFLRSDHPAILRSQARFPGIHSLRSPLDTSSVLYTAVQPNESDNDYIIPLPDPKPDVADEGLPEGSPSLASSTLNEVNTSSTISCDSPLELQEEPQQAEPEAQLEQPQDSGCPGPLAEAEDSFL

TNF (ligand), sequence (P01375 77-233): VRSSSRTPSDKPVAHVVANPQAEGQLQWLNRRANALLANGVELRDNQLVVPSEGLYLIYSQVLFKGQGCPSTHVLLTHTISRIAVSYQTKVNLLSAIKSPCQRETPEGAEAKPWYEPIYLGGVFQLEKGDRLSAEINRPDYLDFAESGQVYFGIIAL
T1 sequence (P19438 with tags, fused parts or gaps): as the sequence (chain, as listed by the source mutant limits assumed) above

Consider `COc1cc2ncnc(N3CCN(C(=O)Nc4ccc(Oc5ccccc5)cc4)CC3)c2cc1OC` [PDGFR Tyrosine Kinase Inhibitor III, 4-(6,7-Dimethoxy-4-quinazolinyl)-N-(4-phenoxyphenyl)-1-piperazinecarboxamide], for which the “Effect on TNF-dependent intracellular calcium increase” value in experiment [1] (1 μM inhibitor, 3 ng/ml TNF, FIG. 5b) is “prevented the detection of intracellular calcium increase”. Further, in experiment [1] (inhibitor 3 μM to 0.45 nM, cells exposed to TNF, FIG. 6), the “Inhibitory efficacy, dose response compared with cells expressing full-length PDGFR” value is given as “equal inhibitory efficacy”.

In the case of TNF (ligand), in experiment [2], the EC50, Ca2+-dependent aequorin luminescence, AUC over 10 minutes was 1.27 ng/mL; the EC50, Ca2+-dependent aequorin luminescence, Max-Min came to 1.06 ng/mL; the EC80, Ca2+-dependent aequorin luminescence, AUC over 10 minutes is 2.9 ng/mL; the EC80, Ca2+-dependent aequorin luminescence, Max-Min stood at 3 ng/mL.
